According to patent US5739106A, “Appetite regulating compositions” (priority 1995, dated 1998):
pEC50, pIC50: −log10 of the molar value. Ends that are not written are not given here.

Legend:
[1] = tested on: insulin-stimulated glycogen synthesis in soleus muscle; conditions: cited from earlier work
[2] = target: amylin receptors (membrane-bound amylin receptors); assay: receptor binding assay: competition with 125I Bolton Hunter rat amylin for membrane-bound amylin receptors
[3] = target: amylin receptors (membrane-bound amylin receptors)
[4] = tested on: food intake in mice; assay: food intake in food-deprived mice after intraperitoneal injection; assay type: in vivo
Description: Male NIH/Swiss Webster (Hsd:NIHS) mice, 8-10 weeks of age, were obtained from Harlan Sprague Dawley, Madison, Wis. Animals were exposed to 12:12 hour light-dark cycle, with lights off at 18:00, and with room temperature between 22° and 25° C. Water and food (Teklan 7002, Harlan Teklad, Madison, Wis.) were available ad libitum except as indicated below. Animals were adapted to the vivarium environment for at least one week before experiments were carried out.
Rat amylin (AC128) was synthesized by Fmoc solid phase synthesis. […] Peptides were dissolved in sterile water to obtain stock solutions of 1 mg/ml. Further dilutions were made with sterile saline just prior to intraperitoneal injections.
Animals were individually housed and deprived of food for 18-20 hours before experiments. Animals were allowed ad libitum access to water before and during the experiments. Immediately after intraperitoneal injection of rat amylin or CCK-8 or saline, all animals received a pre-weighed pellet of food. Food intake for each animal was measured by weighing the food pellet at 30 minutes following injection and providing food.

[5] = tested on: food intake in rats; conditions: IP, 0.5 μg/kg; cited from earlier work
[6] = solubility and stability characteristics compared to human amylin; assay type: physicochemical

Row | Molecule | pIC50 [2] | Soleus Muscle (EC50, nM) [3] [nM] | also measured
1 | Eel calcitonin: calcitonin from fish (eel), ultimobranchial calcitonin (CSNLSTCVLGKLSQELHKLQTYPRTDVGAGTP; ends and bridges not checked; cysteine pairing not given here) | – | – | pEC50 [1]: 9.40
2 | CSCC[C@H](NC(=O)[C@H](Cc1ccc(OS(=O)(=O)O)cc1)NC(=O)[C@@H](N)CC(=O)O)C(=O)NCC(=O)N[C@@H](Cc1c[nH]c2ccccc12)C(=O)N[C@@H](CCSC)C(=O)N[C@@H](CC(=O)O)C(=O)N[C@@H](Cc1ccccc1)C(N)=O [CCK-8, Asp-Tyr(SO3 H)-Met-Gly-Trp-Met-Asp-Phe-NH2] | – | – | effect on food intake ([4]; IP injection of 1.0 μg/kg, peptide alone): no measurable effect; suppressed food intake ([4]; mice, intraperitoneal, 1.0 μg/kg of each peptide, at 30 minutes): 10.6±16.9%
3 | Chicken calcitonin: ultimobranchial calcitonin closely related to fish calcitonins (CASLSTCVLGKLSQELHKLQTYPRTDVGAGTP; ends and bridges not checked; cysteine pairing not given here) | – | – | pEC50 [1]: 9.15
4 | amylin: amylin of unstated species in a literature report (KCNTATCATQRLANFLVHSSNNFGAILSSTNVGSNTY; Islet amyloid polypeptide; UniProt P10997 34-70, looked up) | – | – | effect on food intake [5]: significantly decreased food intake
5 | Salmon calcitonin: calcitonin from fish (salmon), ultimobranchial calcitonin, amylin agonist | – | – | pEC50 [1]: 9.40
6 | CC[C@H](C)[C@H](NC(=O)[C@@H]1CCCN1C(=O)CNC(=O)[C@H](Cc1ccccc1)NC(=O)[C@H](CC(N)=O)NC(=O)[C@H](CC(N)=O)NC(=O)[C@H](CO)NC(=O)[C@H](CO)NC(=O)[C@H](Cc1c[nH]cn1)NC(=O)[C@@H](NC(=O)[C@H](CC(C)C)NC(=O)[C@H](Cc1ccccc1)NC(=O)[C@H](CC(N)=O)NC(=O)[C@H](C)NC(=O)[C@H](CC(C)C)NC(=O)[C@H](CCCNC(=N)N)NC(=O)[C@H](CCC(N)=O)NC(=O)[C@@H](NC(=O)[C@H](C)NC(=O)[C@@H]1CSSC[C@H](NC(=O)[C@@H](N)CCCCN)C(=O)N[C@@H](CC(N)=O)C(=O)N[C@@H]([C@@H](C)O)C(=O)N[C@@H](C)C(=O)N[C@@H]([C@@H](C)O)C(=O)N1)[C@@H](C)O)C(C)C)C(=O)N[C@@H](CC(C)C)C(=O)N1CCC[C@H]1C(=O)N1CCC[C@H]1C(=O)N[C@H](C(=O)N[C@@H](CC(N)=O)C(=O)N[C@H](C(=O)NCC(=O)N[C@@H](CO)C(=O)N[C@@H](CC(N)=O)C(=O)N[C@H](C(=O)N[C@@H](Cc1ccc(O)cc1)C(N)=O)[C@@H](C)O)C(C)C)[C@@H](C)O [^25,28,29 Pro-h-amylin] | – | – | solubility characteristics [6]: more desirable; stability characteristics [6]: more desirable
7 | Human amylin (from UniProt P10997) (ligand) | 10.30 | 1.6 | –

Second part, led by results:

Row | pIC50 [2] | Soleus Muscle (EC50, nM) [3] [nM] | Molecule | also measured
8 | 10.52 | 0.7 | Chicken calcitonin (from UniProt P07660) (ligand) | –
9 | 10.15 | 0.4 | Salmon calcitonin (from UniProt P01263) (ligand) | –
10 | 10.05 | 0.4 | Eel calcitonin (from UniProt P01262) (ligand) | –
11 | 10.30 | 0.3 | 1.7-Asn-eel Calcitonin (from UniProt P01262) (peptide) | –
